We go through 4 molecules from article PMC5303829, “A CAF40-binding motif facilitates recruitment of the CCR4-NOT complex to mRNAs targeted by Drosophila Roquin” (Nature Communications, 2017).

What all share (conditions): both partners purified
Assay [1] has as its target T1, Hs CAF40 ARM domain (residues 19–285) (human, UniProt Q92600 19-285).
T1 construct: CAF40 (CNOT9) armadillo repeat domain, human, residues 19–285; also called CNOT9; purified CAF40 protein; source: E. coli BL21 (DE3) Star, purified (IMAC, heparin, gel filtration)
In words: crystal structure; synthetic CBM peptide mixed with the purified Hs CAF40 ARM domain in an equimolar ratio; 0.1 M NaOAc pH 5.0, 17.5% PEG 4000, 0.1 M AmSO4, 18 °C; 2.15 Å.

The target of assay [2] is T2, Hs NOT module (NOT1-SHD, NOT2-C, NOT3-C) (human, UniProt A5YKK6 1833-2361; Q9NZN8 350-540; O75175 607-748).
T2 construct: NOT1 superfamily homology domain (SHD), human, residues 1833–2361; NOT2-C, human, residues 350–540; NOT3-C, human, residues 607–748; also called NOT1-2-3; source: E. coli, purified as previously described; copies: + +
T2 sequence (A5YKK6 1833-2361, chain 1 of 3): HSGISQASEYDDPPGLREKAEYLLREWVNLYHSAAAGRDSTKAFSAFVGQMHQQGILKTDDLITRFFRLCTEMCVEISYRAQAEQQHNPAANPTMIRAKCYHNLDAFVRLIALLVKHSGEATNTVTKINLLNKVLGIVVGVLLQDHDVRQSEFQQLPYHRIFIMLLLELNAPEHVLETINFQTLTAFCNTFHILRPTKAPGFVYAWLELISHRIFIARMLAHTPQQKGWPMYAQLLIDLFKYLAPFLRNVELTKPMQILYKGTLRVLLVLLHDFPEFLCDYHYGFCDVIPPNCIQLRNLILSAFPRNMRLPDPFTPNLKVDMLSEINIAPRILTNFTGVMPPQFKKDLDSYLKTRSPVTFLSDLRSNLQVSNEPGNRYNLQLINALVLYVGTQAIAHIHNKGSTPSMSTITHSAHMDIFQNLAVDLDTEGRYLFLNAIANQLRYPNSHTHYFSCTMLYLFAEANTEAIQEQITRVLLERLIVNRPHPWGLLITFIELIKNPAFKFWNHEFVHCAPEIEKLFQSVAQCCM
T2 sequence (Q9NZN8 350-540, chain 2 of 3): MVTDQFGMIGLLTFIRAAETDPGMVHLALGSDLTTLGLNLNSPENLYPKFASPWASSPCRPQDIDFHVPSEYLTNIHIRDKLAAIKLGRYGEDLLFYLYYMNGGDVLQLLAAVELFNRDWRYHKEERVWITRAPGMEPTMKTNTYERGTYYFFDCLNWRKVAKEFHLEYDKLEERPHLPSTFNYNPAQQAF
T2 sequence (O75175 607-748, chain 3 of 3): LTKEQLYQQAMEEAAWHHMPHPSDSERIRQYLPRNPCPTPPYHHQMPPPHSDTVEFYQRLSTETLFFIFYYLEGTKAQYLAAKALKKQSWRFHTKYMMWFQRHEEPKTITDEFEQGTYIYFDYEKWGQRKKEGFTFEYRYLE
In words: pull-down; in vitro MBP pulldown: purified MBP-tagged Roquin fragments (40 μg) with equimolar purified CCR4-NOT proteins or subcomplexes on amylose resin; 50 mM HEPES-NaOH pH 7.5, 200 mM NaCl, 2 mM DTT; 1 h; maltose elution, SDS-PAGE, Coomassie.

In assay [3] the target is T1, Hs CAF40 ARM domain (residues 19–285). Described as above.

T1 sequence (Q92600 19-285): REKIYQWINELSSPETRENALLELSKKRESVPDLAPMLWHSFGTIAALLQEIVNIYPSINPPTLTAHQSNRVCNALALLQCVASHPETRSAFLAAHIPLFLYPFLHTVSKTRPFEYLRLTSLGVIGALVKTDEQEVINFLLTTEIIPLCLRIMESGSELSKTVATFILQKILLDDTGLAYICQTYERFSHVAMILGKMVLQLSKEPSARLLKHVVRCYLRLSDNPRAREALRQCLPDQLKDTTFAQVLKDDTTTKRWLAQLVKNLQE

B1: Dm Roquin CBM peptide (residues 790–810) (peptide, UniProt Q9VV48 790-810, looked up)
peptide: EGGIDSGMMLQLEKNLVDIVD
notes: also called Dm CBM; source: synthetic peptide (EMC Microcollections)
As to B1, the binding result in assay [1] is recorded as “binds”.

B2: MBP-tagged Dm Roq-CN (domain or fragment, Drosophila melanogaster, UniProt Q9VV48 501-702, looked up)
chain: HYMGSPRGYLDPSLGLSPGGGLPPSHHSPITRLIVPSRYDSRFSGFGGGTPRIPSPREYQANPVAPTQRNANPPNFSVNSNLHKGYMLPASGGDVFHLANPWEQAYLAQQQHPPQHPQQQQPPSSKPNPSRPLSILPATADTSFFEKKPPNSVSIDLDRVPEVNVDAVPLFRRSNNNHNNNNSNSHNNNNNNHGSSLLFWNN
notes: source: E. coli BL21 (DE3) Star, purified; not shown: MBP, N-terminal, kept
Regarding B2, the binding result in assay [2] was “binds”.

B3: MBP-tagged Dm Roq-CC (domain or fragment, Drosophila melanogaster, UniProt Q9VV48 702-819, looked up)
chain: NTGKDSANFVRSDSILDDDASTFDVPTGSSMLSIYGPICPKSSTTGNWNNFDLGYGGFKSDRNDSFNANKQQQPMWGRKPQLMSEDSFEGGIDSGMMLQLEKNLVDIVDPDDSGIKVD
notes: also called MBP-Roq-CC; not shown: MBP, N-terminal, kept
Consider B3, for which the binding result in assay [3] and in assay [2] was “binds” in each case.

B4: MBP-tagged Dm Roquin CBM alone (peptide, UniProt Q9VV48 790-812, looked up)
chain: EGGIDSGMMLQLEKNLVDIVDPD
notes: as for B2
In the case of B4, the binding result in assay [3] is recorded as “binds”.
